In the supplement of paper PMC10567573:

B1: PBXIP1 (parent)
chain: LPVETLGPASRMDPESERALQAPH
B2: CDC14A (parent)
chain: GPHPKSKIENGYPLHAPEAYFPYF

Variants of: B1
Experiment: protein stability index of a GFP-peptide fusion (GPS, HEK-293T) (PSI 1-6); higher = more stable
Conditions: c terminus: a fixed tail appended
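Further: lentivirally expressed fusions sorted by FACS into six bins by GFP to DsRed ratio, PSI derived from sequencing read proportions per bin multiplied by bin number.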

Protein stability index of substitutions, site by site:
T5: N 5.12; E 5.77; I 4.52; V 4.6; Q 5.52; Y 4.93; D 5.49; A 5.26; K 4.38; C 4.89; G 5.33; F 4.89; M 4.41
G7: M 4.03; I 4.76; Q 4.99; E 5.51; D 5.29; F 4.62; H 4.54; V 4.95
A19: Y 3.64; V 4.46; E 4.68; Q 4.46; C 4.48; F 4.05; W 3.82; K 4.32; T 4.63; R 4.09
P14: D 4.44; Y 3.72; E 4.61; T 4.37; K 4.43; R 4.19; V 4.42
S10: A 5.14; I 3.95; E 5.28; K 5.32; F 3.75; R 4.99; V 4.44
A9: G 4.33; N 4.63; M 4.12; R 4.81; F 3.83; W 4.42; Y 4.26; T 4.51
D13: A 4.61; Q 3.7; E 4.66; V 4.38; H 3.83; S 3.88; T 4.28; I 4.61; R 2.62; F 4.48; C 3.64; K 3.98
L20: A 4.26; I 4.55; T 4.58; F 4.28; K 4.41; Q 4.7; E 4.81; S 4.49; P 4.72; D 4.92
P8: Y 4.67; H 4.51; F 4.19; G 5.57; C 5.37; S 4.64; R 4.73; L 4.99; N 5.28; W 4.01; I 4.89; A 5.03
S16: F 3.85; G 4.56; I 3.77; P 3.95; H 4.25; Y 4.05; D 4.54; W 4.12; M 4.09; C 4.49; V 4.31
M12: G 4.4; W 4.17; N 4.41; T 4.45; Y 4.09; Q 4.89
E15: G 3.99; C 3.82; Q 4.26; N 4.47; D 5.08; I 3.27; P 3.92; V 4.28; F 3.81; R 4.19
Q21: D 4; S 4.45; Y 3.67; N 4.28; P 4.53; M 4.05; V 4.39; H 3.92; A 3.93
E17: K 4.19; S 4.56; Q 4.06; C 3.76; T 4.23; V 4.62; F 3.61; N 4.29; P 4.18; I 3.1; G 4.13
R18: F 4.07; C 4.12; H 4.77; S 4.19; T 4.82; I 4.29; M 4.73; W 3.66; A 4.57; G 4.66; E 4.47
A22: D 4.7; C 4.45; Y 4.31; H 4.76
L1: D 5.07; R 4.72; A 5.48; N 5.38; S 5.25; E 4.68; K 5.15; C 3.66; H 4.89; T 4.64; I 4.42; Y 5.17
H24: F 4.21; R 4.16; V 4.47; T 4.59; Y 4.07; E 4.36; P 4.03; A 4.44; S 4.75; N 4.61; G 4.26; C 4.05
P23: W 3.92; L 4.49; I 4.28; H 4.45; C 4.19; F 3.98; R 4.66; V 3.92; T 4.57; Y 3.99; A 4.09
R11: A 4.18; G 3.95; I 2.99; S 4.01; W 3.7; P 3.98; Q 4.09; T 4.2; M 3.96; E 4.48; H 3.71; F 3.6; N 4.4
V3: Y 5.04; C 4.61; L 4.63; M 4.74; G 4.78; Q 5.07; I 4.92; N 5.42; D 5.5; W 4.55; H 5.34
E4: I 4.98; F 3.94; P 5.25; L 3.49; M 4.74; Q 4.46
L6: W 4.72; S 5.44; V 4.45; P 5.41; R 5.28; Q 5.78; F 4.81; I 3.73; H 5.09; D 5.48
P2: L 3.37; H 4.71; A 4.24; M 3.04; C 4.42; K 3.95; Q 4.47; E 3.99; S 4.4; Y 3.13

Variants of: B2
Experiment: as above
Conditions: c terminus: a fixed tail appended

Protein stability index of substitutions, site by site:
F24: K 3.4; W 1.89; I 2.92; S 2.38; P 3.08; T 3.41; Y 2.6; Q 2.6; D 3.37; L 2.51; V 2.75; M 2.23; H 3.12; C 2.66; E 3.61; G 3.09; N 2.62; A 3.43; R 2.44
Y20: D 3.29; K 2.79; R 2.44; Q 2.55; C 2.19; S 2.55; V 2.55; E 2.76; H 2.71; L 3.1; I 2.57; G 3.25; N 2.63; F 1.89; A 2.76; M 2.71; W 2.19; T 2.84
P22: E 2.22; T 1.64; Q 2.47; S 1.98; D 2.73; M 2.76; L 2.38; H 1.6; R 2.5; G 1.8; A 1.61; N 1.99; V 2.19; K 2.67; C 2.9; W 2.54; I 3.32
Y23: R 2.97; Q 3.24; V 2.07; F 2.23; L 1.95; W 1.91; D 3.92; I 2.4; C 2.77; M 2.32; S 3.11; E 3.4; A 2.93; T 3; H 2.97; N 3.28; K 3.13; G 3.21
A19: R 1.78; S 2.35; L 1.98; T 2.39; K 2.51; Y 2.35; M 2.97; V 1.89; Q 2.48; N 2.71; W 1.87; P 2.41
F21: Q 2.85; A 3; I 2.17; V 2.9; D 3.55; H 2.47; K 3.05; L 2.17; S 2.96; C 2.92; G 2.8; M 2.69; R 2.94; Y 2.44; N 2.91; W 2.71
